Experimental data reported in US20070020327A1.

Tests used:
HLA-A*0201 (human) [1] = experiment: competition with 125I-labeled probe peptide for purified HLA, gel filtration
HLA-A*6802 (human) [2] = experiment: as above
HLA-A*0206 (human) [3] = experiment: as above
HLA-A*0202 (human) [4] = experiment: as above
HLA-A*0203 (human) [5] = experiment: as above
HLA-A*0201 (human) [6] = experiment: competitive inhibition of 125I-labelled standard peptide binding to purified HLA
HLA-A*0202 (human) [7] = experiment: as above
HLA-A*0206 (human) [8] = experiment: as above
HLA-A*0203 (human) [9] = experiment: as above
HLA-A*0201 (human) [10] = experiment: competition with 125I standard peptide for purified HLA; gel filtration
HLA-A*6802 (human) [11] = experiment: as above
HLA-A*0202 (human) [12] = experiment: as above
HLA-A*0206 (human) [13] = experiment: as above
HLA-A*0203 (human) [14] = experiment: as above
HLA-A*0202 (human) [15] = experiment: competition binding to purified HLA, 125I-labelled standard peptide, gel filtration; ratio = IC50 standard / IC50 test peptide
HLA-A*0202 (human) [16] = experiment: competition for purified HLA with 125I-labelled standard peptide 941.01 [..] as competitor, gel filtration; conditions: remark: other sources report otherwise; scale: ratio
HLA-A*0201 (human) [17] = experiment: inhibition of 125I probe peptide binding to purified HLA, gel filtration; ratio = IC50 standard/IC50 test; conditions: remark: other sources report otherwise
HLA-A*0202 (human) [18] = experiment: as above; conditions: remark: other sources report otherwise
HLA-A*0206 (human) [19] = experiment: competition with 125I-labelled standard peptide for purified HLA, gel filtration; ratio = IC50 standard / IC50 test peptide; conditions: remark: other sources report otherwise
HLA-A*0203 (human) [20] = experiment: as above; conditions: remark: other sources report otherwise
HLA-A*6802 (human) [21] = experiment: competition with 125I-labelled standard peptide 1072.34 for purified HLA-A*6802, gel filtration
HLA-A*0206 (human) [22] = experiment: competition with 125I-labelled standard peptide 941.01 for purified HLA-A*0206, gel filtration
HLA-A*0202 (human) [23] = experiment: competition with 125I-labelled standard peptide 941.01 for purified HLA-A*0202, gel filtration
HLA-A*0201 (human) [24] = experiment: competition with 125I-labelled standard peptide 941.01 for purified HLA-A*0201, gel filtration
HLA-A*0201 (human) [25] = experiment: competitive inhibition of 125I-labelled standard peptide binding to purified HLA, gel filtration; ratio = IC50 standard / IC50 test peptide
HLA-A*0206 (human) [26] = experiment: as above
HLA-A*0203 (human) [27] = experiment: as above
[28] = remark: other sources report otherwise

Question: Which results are given for GTPEGDLVYV (modifications not checked) [Peptide 1418.29 … (PSM.168.T2)]?
Answer: IC50 (HLA-A*0201 (human) [1]; [28]): 313 nM; IC50 (HLA-A*6802 (human) [2]; [28]): 571 nM; IC50 (HLA-A*0206 (human) [3]; [28]): 40 nM

Question: Which results are given for LMYSLVHNL (modifications not checked) [Peptide 1126.14 … (PSM.469)]?
Answer: IC50 (HLA-A*0201 (human) [1]): 64 nM; IC50 (HLA-A*6802 (human) [2]): 320 nM; IC50 (HLA-A*0202 (human) [4]): 0.4 nM

Question: Which results are given for MMNDQLMFL (modifications not checked) [Peptide 1126.01 … (PSM.663)]?
Answer: IC50 (HLA-A*6802 (human) [2]): 195 nM; IC50 (HLA-A*0202 (human) [4]): 0.8 nM; IC50 (HLA-A*0206 (human) [3]): 7.6 nM; IC50 (HLA-A*0203 (human) [5]): 1.7 nM

Question: Which IC50 (HLA-A*0201 (human) [6]) does the source give for FLTLSVTWIGV (modifications not checked) [Peptide 63.0186, … (PSA.3.V11)] here?
Answer: 6.8 nM

Question: What about the IC50 (HLA-A*0202 (human) [7]) of the same binder?
Answer: 3 nM

Question: And the IC50 (HLA-A*0206 (human) [8])?
Answer: 65 nM

Question: And the IC50 (HLA-A*0203 (human) [9])?
Answer: 18 nM

Question: MLLRLSEPAEV (modifications not checked) [Peptide 1389.12, … (PSA.118.V11)] was tested. Which IC50 (HLA-A*0203 (human) [9]; [28]) did it give?
Answer: 115 nM

Question: Which IC50 (HLA-A*0201 (human) [10]; [28]) does the source give for LLSNDMCARV (modifications not checked) [Peptide 1418.53 … (HuK2.178.V10)] here?
Answer: 5.3 nM

Question: What about the IC50 (HLA-A*6802 (human) [11]; [28]) of the same binder?
Answer: 1700 nM

Question: And the IC50 (HLA-A*0202 (human) [12]; [28])?
Answer: 0.7 nM

Question: And the IC50 (HLA-A*0206 (human) [13]; [28])?
Answer: 10 nM

Question: And the IC50 (HLA-A*0203 (human) [14]; [28])?
Answer: 4.3 nM

Question: KVTEFMLCV (modifications not checked) [Peptide 1418.21 … (HuK2.191.V9)] was tested. Which IC50 (HLA-A*6802 (human) [11]; [28]) did it give?
Answer: 6670 nM

Question: How did the IC50 (HLA-A*0201 (human) [10]) turn out when LVCNGVLQGV (modifications not checked) [Peptide 1418.55 … (HuK2.217.V10)] was run?
Answer: 10 nM

Question: And the IC50 (HLA-A*6802 (human) [11])?
Answer: 3.5 nM

Question: And the IC50 (HLA-A*0202 (human) [12])?
Answer: 2.9 nM

Question: What about the IC50 (HLA-A*0206 (human) [13]) of the same binder?
Answer: 5.6 nM

Question: And the IC50 (HLA-A*0203 (human) [14])?
Answer: 12 nM

Question: For LLWQPIPVHV (modifications not checked) [Peptide 1419.69 … (PAP.136.V10)], which IC50 (HLA-A*0201 (human) [10]) is on record?
Answer: 25 nM

Question: And the IC50 (HLA-A*6802 (human) [11])?
Answer: 60 nM

Question: And the IC50 (HLA-A*0202 (human) [12])?
Answer: 1.8 nM

Question: What about the IC50 (HLA-A*0203 (human) [14]) of the same binder?
Answer: 17 nM

Question: With DTGQRVPV (modifications not checked) [DTGQRVPV (Kallikrein, position 85, 8 amino acids)] as the binder, how does the binding affinity ratio (HLA-A*0202 (human) [15]) read?
Answer: 0.0001

Question: How did the binding affinity ratio (HLA-A*0202 (human) [16]) turn out when IALSVGCTGA (modifications not checked) [… (Kallikrein position 8, 10-mer)] was run?
Answer: 0.05

Question: Which results are given for AAHCIRNKSVI (modifications not checked) [… (PSA, position 59)]?
Answer: binding affinity ratio (HLA-A*0201 (human) [17]): 0.001; binding affinity ratio (HLA-A*0202 (human) [18]): 0.01

Question: With QVAVYSHGWA (modifications not checked) [Kallikrein (hK2) peptide …, position 39, 10 amino acids] as the binder, how does the binding affinity ratio (ratio to standard peptide) (HLA-A*0206 (human) [19]) read?
Answer: 0.0005

Question: And the binding affinity ratio (ratio to standard peptide) (HLA-A*0203 (human) [20])?
Answer: 0.02

Question: For RLSEPAKI (modifications not checked) [RLSEPAKI (Kallikrein, position 125)], which binding affinity ratio (IC50 of standard peptide / IC50 of test peptide) (HLA-A*6802 (human) [21]) is on record?
Answer: -0.0001

Question: What about the binding affinity ratio (IC50 of standard peptide / IC50 of test peptide) (HLA-A*0206 (human) [22]) of the same binder?
Answer: -0.0001

Question: What about the binding affinity ratio (IC50 of standard peptide / IC50 of test peptide) (HLA-A*0202 (human) [23]) of the same binder?
Answer: 0.0005

Question: What about the binding affinity ratio (IC50 of standard peptide / IC50 of test peptide) (HLA-A*0201 (human) [24]) of the same binder?
Answer: -0.0001

Question: What does the source list for VLGLPTQEPAL (modifications not checked) [… (Kallikrein, position 138)]?
Answer: binding affinity ratio (HLA-A*0201 (human) [25]): -0.0001; binding affinity ratio (HLA-A*0206 (human) [26]): 0.0003; binding affinity ratio (HLA-A*0203 (human) [27]): 0.0003
